# Assay results as given in the domain aggregation screens of Martell et al. (2025).
# Assay: soluble fraction after stress (log2 fold change); higher = more stays soluble; pooled small domains, quantitative proteomics
# Conditions: stress: pH 4
# How it was run: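 Pooled custom libraries of small protein domains were stressed at pH 4 and then measured by high-throughput quantitative proteomics. The fold change in the amount of each domain that stays soluble after the acid stress serves as a measure of aggregation propensity. Fold changes are given on a log2 scale, and higher values mean more of the domain stayed soluble.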
row,Sequence,soluble fraction (log2)
1,HMGDHYTALGLSIDATPEEIRSAYFLAARRSHPDANPDAQTTEWFLRVQEAYDILSNPRRRAEYDASLP,-1.46
2,HMQVSDAAQLAEVVKTVLAENPAAVGDYRKGKKAAIGFLLGQVMRHMRGTANPAVARQLLEQALEDE,0.231
3,HMVKSDLVGHRFILVEDVTPKLTPKYHYSGINWKLITTDNLVAGTRVEVIQVDVGKFHIKAIK,-0.82
4,HMSSTSISFNDFQKYWLSNDIKSFQLREDKMTVQGSLKNGTAYETVVPSERLFQFIGQHPKD,-0.127
5,HMASELVSADEKYSGLVSYLLGRVVVVDQIDHAIALAKKYRYSLRIVTLDGELLSPGGSMTGGAFKNS,0.2
6,HMEPSQEFSLADMVAYDLTGYPKSAALRAAVGASLGIGYGNAKQFVYRLNHYGISKDDFHRAAQEALDGL,0.057
7,HMAKIPASTVVEIDGAPVVVAVRVNARARSYRLSIPHSGGPLLTLPPHGKWAEAEAFLLRHHNWLAARLHR,0.22
8,HMGSEYILTIIPTPADATVFINGVKKNSASGVNGQILSWEVTKEGYIPQSGTFTINGKNETIEVVLQPQT,-0.577
9,HMQPKKLNMYYDYVRQLLESHPYLSAAQIEDRLKEEFTELPMVHSKTVFNFVENIRLQHGINKHA,0.0853
10,HMAEERVLSVPQSLAGERLDAALASLMPDYSRSRLASWIKEGLVTVDGAGAMPKQKLWGGETLRVQAQPT,0.0973
11,HMVDGAHKQQAAVQALTPALKVLAAAPEGKKGQAIQALRAVLKQHGRWLDDATAQQVHEQLLAAGDAQGWQ,0.331
12,HMSSWEVLAEPIQTVMRRYGVPGAYEKLKEVTRGKSLTAEALHALIRSLDIPQADKERLLALTPAAWA,-0.393
13,HMERFMEFVITDTQQGQRLDVVLTETTEHLGSRSHMQRSIRAGLVSIDGITTTRASTKVSSGQIIRVEPT,-0.629
14,HMALQLPFSFAKRHKVLVESAHEPVKVYHTPSTDFAVFAEVRRFLDQTFVLEEIAENRFEELLTSSFQRD,-1.46
15,HMSLNSELIARIENLIASIEDKRSWGYGFAESVLGQVQAGATLSPRQLEIIAKLEKENSYSVQLERQ,-0.479
16,HMFAAIFADDSGFTTRSKRFGPYVEEIAADWQAVKQLSDEDAKQALVPLVKKIELALSTLQQFVSSV,-0.405
17,HMAGSGLPVPRFVSLADDRVNARAGPGFRFPINWVYLRKGFPVEVVDEFGPWRRIRDIDGVAAWIHLSMLS,-0.848
18,HMAKRKTEKTSVLEEIDGVGKARARALLARFGGLSGVKAASPEELRTVRGITPEIAENIRRYFQ,0.134
19,HMGYTPGVVIQKSAILEEINQPDLALGMMLEAVKKDSQNLDILNRLVTLLIDQKKNEDAEIYNKKIIT,0.187

row,Sequence,soluble fraction (log2)
1,HMQEAGKWLKKLRTERKITLEQLSKKTGLSVGFLSQFERGLTSIAIDTLEKIAAVFNVTIDYFISP,0.22
2,HMQFEIGDTVRVHVNIREGERERVQMFEGTVIAKRGSGVSETFTVRRVSYGVGVERVFPVNSPNV,0.22
3,HMGDGMEVWVNGSPVNLTGKDSFIFVDIFDFIDFDLTASKGRLIVIKVNGEYAEYTRPLHNGDTIEIYWEE,-0.638
4,HMRLADHVVEKLLALVQDRGLQPGQKLPAERQLAEELGVSRTSVREAIQKLTSQGVLSARRGDGTYLQS,0.402
5,HMAPRIVTIQIPVDKIRDVIGPGGKVIRSIIERTGVKIDVEDDGRVNVASADGDSAQRAIAIIQELTAT,-0.0595
6,HMTSLVRTSNLDGFEPLARSIGVDPVMELMRFGIPPDALIRENMFISFIGFIRLLEHTALAG,0.206
7,HMAMYYVIGGDGQQYGPIDEATVRGWLGEGRVSAASLSFKTGEAQWIPLRDRPELADVLATA,-0.311
8,HMASIGVGTIVRVANAVNYNGVKVKAWFNDEGYEVTELSGDRAVLKHNGDLFDAFHVSDLEA,-0.771
9,HMYKLTYVVDGEVYLEETVSYGSKIAAAPAPEKEGYTFSGWEGLPEVMPAKDVTVSGSFTVN,-0.0428
10,HMVPVQLTPRELQVARLAAHGASSPEIAAELRVSRRTVDNQLGRVYAKLGIAGRAELAAALSRLPVSV,≥ 0.43
11,HMERVNILEKATKDIPNVEVKAFEGLSVNFARENHAQVIVRGLRAVTDFEYELQMAQTNRVLAPDVDTVF,0.317
12,HMKTLSKEDIGFLSDEAVGEMRKAVANGEMLELRALIDQVGEKNPIVAEKLLTLVKQYDYENLNRVLE,-0.802
13,HMSEILQLINKIDKKLEKGYTFANISRNHYEKIYKEEILNLYKTSKLKGEAEDSIKEVLESLLGDLRKP,0.368
14,HMGLAALLQSGPVAGTVLSHQPGGKVVIAFQGQAYPLNLKGRTLQPGQSVLARMAGEQISLEVI,-0.0159
15,HMQDAVASEKIQLMSEALHARDTGDLLLAKEKVEKLIALAPNDKNIQALLLTINQSIEDKGL,-0.0958
16,HMHLTEAPLIKITYFEADQKKSGGQYITIINHLKKINEYENLLVLENGVKINIDDIYELESV,-0.804
17,HMTAKRELILRVFMDSNGKLLSIDDVFMEMRKKRSHRTSKMTVKRAIDLLVDLGLLKEVLFDDDNIKYEYV,-0.105
18,HMVEVTTDEITRPGAMVSGSVTFSDGVKAIWLIDEYGRPGLEPETPGYQPSESDLSEFEKHLRALLQ,-0.648
19,HMDTINEYERNILSLITSKPGISAVQIAADTDKSIITAKRGIKTLVDGKLIEYRGSKKTGGYFLLTQS,0.275
